The values that follow come from US20040120954A1, “Regulation of mt1-mmp activity” (priority 2000, published 2004).

The test system of assay [1] is MT1-MMP. The assay can be described thus: Activation of proMMP-2 by MT1-MMP on the cell surface of transfected cells (gelatin zymography). The following applies: transfected COS1 cells, exogenous purified proMMP-2 (FIGS. 2, 20). Type of assay: cell-based, human. On the procedure:
(§1) Gelatin zymography was conducted using an SDS-polyacrylamide gel (PAGE) containing gelatin (0.8 mg/ml) (Itoh, Y. et al., J. Biol. Chem., 273: 24360-24367, 1998). The samples were mixed with a SDS-PAGE loading buffer without a reducing agent and subjected to electrophoretic analysis at room temperature. Enzyme activity was visualized as a negative staining area with Coomassie Brilliant Blue R-250.
(§2) The expression construct for FLAG epitope ([…]-tagged MT1-MMP (MT1-F) described in Itoh, Y. et al., J. Biol. Chem., 274: 34260-34266, 1999 was used as a template to generate cDNA for MT1Cat-F (A Ile^318-Gly^535) by the PCR extension method of Ho et al., (Ho, S. N. et al., Gene, 77: 51-59, 1989). The cDNA was subcloned into pSG5 (Stratagene, CA, USA). The PCR-generated fragments were confirmed by DNA sequencing. COS1 cells were transfected with the expression vector for MT1-MMP mutant; MT1-F or MT1Cat-F, or a vector alone (Mock). Expression vectors for each protein were transfected using FuGENE6™ (Roche Molecular Biochemicals) according to the manufacturer's instructions. COS1 cells were seeded in 6-well plates at 1.5×10^5/well at 16 hrs before the transfection was performed. The COS1 cells were maintained in a HAM F-12 medium or DMEM containing 10% fetal bovine serum in a humidified incubator at 37° C. At 48 hrs after the transfection, the cells were collected for use in the experiments. The cells were incubated in the presence of purified proMMP-2 in a serum-free medium (0.25 μg/ml) at 37° C. for 18 hrs. Cell lysates were tested for the expression of the mutants, while culture supernatants were tested for the activation of proMMP-2.
(§3) To investigate roles of dimer formation upon the activation of proMMP-2, MT1-F was introduced into COS1 cells together with MT1PEX-F. The co-introduced cells were reacted with exogenously added proMMP-2. Thus, COS1 cells were co-transfected with the MT1-F and MT1PEX-F at indicated DNA amount ratios. Next, purified proMMP-2 (0.25 μg/ml) in a serum-free medium was reacted with the resulting cells at 37° C. for 18 hrs. MMP-2 in the culture supernatant was analyzed by gelatin zymography, and the cell lysates were subjected to Western blotting analysis using a monoclonal anti-FLAG M2 antibody.
(§4) Next, to determine if MT1PEX-F affects the catalytic activity of MT1-MMP on the cell surface or not, tests for gelatin degrading activity and binding capacity to TIMP-2 were conducted using cells transfected in the same incubator. As shown in FIGS. 12 through 14, CHO-K1 cells were transfected with an expression vector for MT1-F, MT1-F/MT1PEX-F or MT1Cat-F, or a vector alone (Mock). The cells were then treated with trypsin, and separately seeded to: DQ™ gelatin-coated cover slips for testing the proteolytic activity (FIG. 13); and 24-well plates for TIMP-2 binding assay (FIG. 12) and for the activation of proMMP-2 (FIG. 14). Transfected cells on the DQ™ gelatin-coated cover slip as shown in FIG. 13 were incubated in a medium at 37° C. for 18 hrs, and the generated fluorescence was analyzed using confocal microscopy. Transfected cells on the 24-well plate as shown in FIG. 12 were incubated with 25 nM ^125I-labeled TIMP-2 in the presence or absence of BB-94 (50 μM) at 0° C. for 1 hr. MT1-MMP specific binding was calculated by subtracting the datum obtained in the presence of BB-94 (50 μM) from each datum derived from the corresponding experiments. […] DQ™ gelatin is a fluorescence-quenched gelatin, which fluoresces upon proteolytic cleavage. […]

Assay [2] relates to MT1-MMP. The assay can be described thus: In situ gelatin degrading assay (DQ gelatin or Alexa488-conjugated gelatin). Format: cell-based, human. The settings on record: DQ gelatin; CHO-K1 (FIG. 13) or COS1 cells (FIG. 22). On the procedure: (§5) Two different in situ gelatin degrading assays were performed. One used DQ™ gelatin (Molecular Probes, Inc., OR, USA). DQ gelatin is a fluorescence-quenched gelatin substrate, and will fluoresce upon proteolytic cleavage. Glass cover slips were coated with 5% DQ™ gelatin in a 10 mg/ml unlabeled gelatin solution, and dried. Transfected cells were cultured on the cover slip in a humidified chamber for 16 hrs. The cells were then fixed with 3% para-formaldehyde and the degraded areas were visualized as those showing fluorescence.
(§6) The other assay used Alexa488-conjugated gelatin made with an Alexa488-labeling kit (Molecular Probes). The bottom surfaces of 4-well chamber slides (Nunc) were coated with Alexa488-conjugated gelatin according to the method of Yana, I. and Weiss, S. J., Mol. Biol. Cell, 11, 2387-2401, 2000. Transfected COS1 cells were cultured in the chamber slides for 16 hrs in a humidified culture incubator. The cells were then fixed with 3% para-formaldehyde in PBS, and the degraded area was analyzed under a fluorescence microscope. The degraded area was visualized as a dark, non-fluorescent area. Fluorescence images were analyzed using confocal microscopy (BioRad).
as §4, with “experiments. Identically transfected cells on the 24-well plate as shown in FIG. 14 were subjected to the reaction with purified proMMP-2 in a serum-free medium at 37° C. for 18 hrs. The cells and culture supernatants were respectively subjected to Western blotting analysis using a monoclonal anti-FLAG M2 antibody, and gelatin zymography analysis.” for “experiments.”

Assay [3] has as its target T1, MT1-MMP (Homo sapiens, UniProt P50281).
T1 construct: expressed in transfected cells
Put plainly: Activation of proMMP-2 by MT1-MMP on the cell surface of transfected cells (gelatin zymography). Format: cell-based. On the procedure:
as §1, §2, §3, §4

Assay [4] concerns the target T1, MT1-MMP. The assay can be described thus: In situ gelatin degrading assay (DQ gelatin or Alexa488-conjugated gelatin). Type of assay: cell-based. The settings on record: COS1 cells co-transfected with MT1-MMP, Alexa488-labeled gelatin (FIG. 30). As to the method: as §5, §6
as §4, with “experiments. Identically transfected cells on the 24-well plate as shown in FIG. 14 were subjected to the reaction with purified proMMP-2 in a serum-free medium at 37° C. for 18 hrs. The cells and culture supernatants were respectively subjected to Western blotting analysis using a monoclonal anti-FLAG M2 antibody, and gelatin zymography analysis.” for “experiments.”

On to “MT1Cat-F: PEX-deleted FLAG-tagged MT1-MMP (Δ Ile318-Gly535)”, for which the “activation of proMMP-2 by cells expressing the mutant” value in the assay with MT1-MMP [1] is reported as “did not activate at all”. In the assay on MT1-MMP [2], the “gelatin degrading (proteolytic) activity of cells expressing the mutant” value was “exhibited the gelatin degrading activity”.

Take “MT1PEX-F: Catalytic domain-deleted FLAG-tagged MT1-MMP (Δ Tyr112-Pro312), expressed by transfection”: the “effect on the activation of proMMP-2” value with MT1-MMP [3] (CHO-K1 cells co-transfected with MT1-F and MT1PEX-F (FIG. 14)) was “completely inhibited the activation of proMMP-2”. In addition, the “effect on the activation of proMMP-2 by MT1-F” value in the assay with MT1-MMP [3] (COS1 cells co-transfected at indicated DNA ratios, proMMP-2 0.25 μg/ml, 37° C., 18 hrs (FIGS. 11 and 28)) was “inhibited the activation of proMMP-2 by MT1-F, in dependence upon the expression level”. Besides, the “effect on the proteolytic activity of MT1-MMP on the cell surface” value in the assay with MT1-MMP [4] is on record as “did not affect the proteolytic activity”.
